Laboratory results: patent US20140087995A1 (published 2014)
Numbered stars: 1 amine (or outer) side, 2 acyl side, 3 side chain; on linkers, the order of the positions; unused ones are H or OH. Bridge positions count the residues as written; N and C are the ends. Side chains are listed from the residue outwards. Ends that are not written are not given here. * marks the point of attachment. C20 diacid = O=C(O)CCCCCCCCCCCCCCCCCCC(=O)*; γGlu = O=C(O)[C@H](CCC(=O)[*:2])N[*:1]

T1: human amylin receptor (amylin 3(a) receptor: human calcitonin receptor with RAMP-3) (human, UniProt P30988 25-474; O60896 24-148)
T1 construct: whole, on cells; Assay used cell membranes of the Amylin 3(a)/CRE-luc BHK cells, not intact cells; also called hAmylin-R; hAmylinR
T1 sequence (looked up) 1: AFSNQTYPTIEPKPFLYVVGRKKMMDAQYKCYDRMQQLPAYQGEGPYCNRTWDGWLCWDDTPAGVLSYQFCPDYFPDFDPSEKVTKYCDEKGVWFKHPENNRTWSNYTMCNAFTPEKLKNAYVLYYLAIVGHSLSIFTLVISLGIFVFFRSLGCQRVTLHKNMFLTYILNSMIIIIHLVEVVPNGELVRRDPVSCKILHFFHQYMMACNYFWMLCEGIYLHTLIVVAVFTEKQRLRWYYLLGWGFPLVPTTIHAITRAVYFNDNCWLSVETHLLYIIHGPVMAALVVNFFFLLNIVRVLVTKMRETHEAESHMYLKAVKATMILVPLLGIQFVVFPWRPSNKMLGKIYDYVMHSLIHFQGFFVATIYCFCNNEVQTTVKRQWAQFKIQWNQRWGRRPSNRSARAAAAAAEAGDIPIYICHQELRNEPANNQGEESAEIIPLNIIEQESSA
T1 sequence (looked up) 2: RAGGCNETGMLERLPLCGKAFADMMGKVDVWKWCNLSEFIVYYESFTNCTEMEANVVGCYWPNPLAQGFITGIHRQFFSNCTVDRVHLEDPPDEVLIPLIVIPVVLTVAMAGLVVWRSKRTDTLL

T2: human calcitonin receptor (human, UniProt P30988 25-474)
T2 construct: whole, on cells; Assay used cell membranes, not intact cells; also called hCTR; hCT
T2 sequence (looked up): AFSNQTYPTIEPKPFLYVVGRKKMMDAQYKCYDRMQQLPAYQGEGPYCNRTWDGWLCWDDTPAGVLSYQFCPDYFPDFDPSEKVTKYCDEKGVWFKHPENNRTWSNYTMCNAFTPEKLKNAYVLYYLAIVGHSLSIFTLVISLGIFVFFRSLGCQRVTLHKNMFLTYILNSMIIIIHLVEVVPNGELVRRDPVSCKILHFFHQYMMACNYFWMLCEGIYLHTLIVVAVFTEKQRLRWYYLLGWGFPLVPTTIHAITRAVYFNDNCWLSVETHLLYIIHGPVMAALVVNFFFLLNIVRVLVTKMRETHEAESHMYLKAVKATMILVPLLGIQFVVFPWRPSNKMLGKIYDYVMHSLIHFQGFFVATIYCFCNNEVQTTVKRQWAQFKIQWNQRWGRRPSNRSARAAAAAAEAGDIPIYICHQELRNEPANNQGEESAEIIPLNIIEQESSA


How the values were obtained:
[1] = target: T1, human amylin receptor (amylin 3(a) …); experiment: SPA competition with 125I-rat amylin on membranes of BHK cells with human calcitonin receptor and RAMP-3 (Assay V)
In short: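 SPA beads + BHK amylin 3(a)/CRE-luc membranes, 35 ng/μL final; buffer 50 mM Hepes pH 7.4, 1 mM CaCl2, 5 mM MgCl₂, 0.1% OA, 0.02% Tween20. 120 min, 25° C, shaken; scintillation count. IC₅₀ by one-site binding competition fit, taken as receptor affinity.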

[2] = target: T2, human calcitonin receptor; experiment: SPA competition with 125I-calcitonin on membranes of BHK cells with human calcitonin receptor (Assay VII)
In short: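 BHK hCTR membranes 35 ng/μL + SPA beads 0.05 mg/well; buffer 50 mM Hepes pH 7.4, 1 mM CaCl2, 5 mM MgCl₂, 0.1% OA, 0.02% Tween20. 120 min, 25° C., shaking. Scintillation count; IC50 by one-site binding competition.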

[3] = target: T2, human calcitonin receptor; experiment: ratio IC50 hCTR / IC50 hAmylin-R (reference: human amylin receptor), SPA competition assays
In short: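 Membranes (35 ng/μL final) + SPA beads, 50 mM Hepes pH 7.4 buffer with 1 mM CaCl2, 5 mM MgCl₂, 0.1% OA, 0.02% Tween20; 120 min, 25° C, shaking; centrifuged, counted; IC₅₀ by one-site binding competition.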

Binder	IC50 [1] [nM]	IC50 [2] [nM]	Ratio hCT/hAmylin binding [3]
K([γGlu-C20 diacid])CNTATCATQRLARFLRHSSPNFGAIPSSTNVGSNTY-NH2 (disulfide 2-7; N-terminus assumed; SMILES CC[C@H](C)[C@H](NC(=O)[C@H](C)NC(=O)CNC(=O)[C@H](Cc1ccccc1)NC(=O)[C@H](CC(N)=O)NC(=O)[C@@H]1CCCN1C(=O)[C@H](CO)NC(=O)[C@H](CO)NC(=O)[C@H](Cc1c[nH]cn1)NC(=O)[C@H](CCCNC(=N)N)NC(=O)[C@H](CC(C)C)NC(=O)[C@H](Cc1ccccc1)NC(=O)[C@H](CCCNC(=N)N)NC(=O)[C@H](C)NC(=O)[C@H](CC(C)C)NC(=O)[C@H](CCCNC(=N)N)NC(=O)[C@H](CCC(N)=O)NC(=O)[C@@H](NC(=O)[C@H](C)NC(=O)[C@@H]1CSSC[C@H](NC(=O)[C@@H](N)CCCCNC(=O)CC[C@H](NC(=O)CCCCCCCCCCCCCCCCCCC(=O)O)C(=O)O)C(=O)N[C@@H](CC(N)=O)C(=O)N[C@@H]([C@@H](C)O)C(=O)N[C@@H](C)C(=O)N[C@@H]([C@@H](C)O)C(=O)N1)[C@@H](C)O)C(=O)N1CCC[C@H]1C(=O)N[C@@H](CO)C(=O)N[C@@H](CO)C(=O)N[C@H](C(=O)N[C@@H](CC(N)=O)C(=O)N[C@H](C(=O)NCC(=O)N[C@@H](CO)C(=O)N[C@@H](CC(N)=O)C(=O)N[C@H](C(=O)N[C@@H](Cc1ccc(O)cc1)C(N)=O)[C@@H](C)O)C(C)C)[C@@H](C)O, also called compound 83) [N^ε1-[(4S)-4-carboxy-4-(19-carboxynonadecanoylamino)butanoyl]-[Arg14,Arg17,Pro21,Pro27]-h-amylin]	0.939	137	146
K([γGlu-C20 diacid])CNTATCATQRLANFLRHSSPNFGAIPSSTNVGRNTY-NH2 (disulfide 2-7; N-terminus assumed; SMILES CC[C@H](C)[C@H](NC(=O)[C@H](C)NC(=O)CNC(=O)[C@H](Cc1ccccc1)NC(=O)[C@H](CC(N)=O)NC(=O)[C@@H]1CCCN1C(=O)[C@H](CO)NC(=O)[C@H](CO)NC(=O)[C@H](Cc1c[nH]cn1)NC(=O)[C@H](CCCNC(=N)N)NC(=O)[C@H](CC(C)C)NC(=O)[C@H](Cc1ccccc1)NC(=O)[C@H](CC(N)=O)NC(=O)[C@H](C)NC(=O)[C@H](CC(C)C)NC(=O)[C@H](CCCNC(=N)N)NC(=O)[C@H](CCC(N)=O)NC(=O)[C@@H](NC(=O)[C@H](C)NC(=O)[C@@H]1CSSC[C@H](NC(=O)[C@@H](N)CCCCNC(=O)CC[C@H](NC(=O)CCCCCCCCCCCCCCCCCCC(=O)O)C(=O)O)C(=O)N[C@@H](CC(N)=O)C(=O)N[C@@H]([C@@H](C)O)C(=O)N[C@@H](C)C(=O)N[C@@H]([C@@H](C)O)C(=O)N1)[C@@H](C)O)C(=O)N1CCC[C@H]1C(=O)N[C@@H](CO)C(=O)N[C@@H](CO)C(=O)N[C@H](C(=O)N[C@@H](CC(N)=O)C(=O)N[C@H](C(=O)NCC(=O)N[C@@H](CCCNC(=N)N)C(=O)N[C@@H](CC(N)=O)C(=O)N[C@H](C(=O)N[C@@H](Cc1ccc(O)cc1)C(N)=O)[C@@H](C)O)C(C)C)[C@@H](C)O, also called compound 79) [N^ε1-[(4S)-4-carboxy-4-(19-carboxynonadecanoylamino)butanoyl]-[Arg17,Pro21,Pro27,Arg34]-h-amylin]	0.79	36.4	46.1
K([γGlu-C20 diacid])CNTATCATQRLANFLRHSSPNFGAIPSSTNVGHNTY-NH2 (disulfide 2-7; N-terminus assumed; SMILES CC[C@H](C)[C@H](NC(=O)[C@H](C)NC(=O)CNC(=O)[C@H](Cc1ccccc1)NC(=O)[C@H](CC(N)=O)NC(=O)[C@@H]1CCCN1C(=O)[C@H](CO)NC(=O)[C@H](CO)NC(=O)[C@H](Cc1c[nH]cn1)NC(=O)[C@H](CCCNC(=N)N)NC(=O)[C@H](CC(C)C)NC(=O)[C@H](Cc1ccccc1)NC(=O)[C@H](CC(N)=O)NC(=O)[C@H](C)NC(=O)[C@H](CC(C)C)NC(=O)[C@H](CCCNC(=N)N)NC(=O)[C@H](CCC(N)=O)NC(=O)[C@@H](NC(=O)[C@H](C)NC(=O)[C@@H]1CSSC[C@H](NC(=O)[C@@H](N)CCCCNC(=O)CC[C@H](NC(=O)CCCCCCCCCCCCCCCCCCC(=O)O)C(=O)O)C(=O)N[C@@H](CC(N)=O)C(=O)N[C@@H]([C@@H](C)O)C(=O)N[C@@H](C)C(=O)N[C@@H]([C@@H](C)O)C(=O)N1)[C@@H](C)O)C(=O)N1CCC[C@H]1C(=O)N[C@@H](CO)C(=O)N[C@@H](CO)C(=O)N[C@H](C(=O)N[C@@H](CC(N)=O)C(=O)N[C@H](C(=O)NCC(=O)N[C@@H](Cc1c[nH]cn1)C(=O)N[C@@H](CC(N)=O)C(=O)N[C@H](C(=O)N[C@@H](Cc1ccc(O)cc1)C(N)=O)[C@@H](C)O)C(C)C)[C@@H](C)O, also called compound 77) [N^ε1-[(4S)-4-carboxy-4-(19-carboxynonadecanoylamino)butanoyl]-[Arg17,Pro21,Pro27,His34]-h-amylin]	0.428	50.7	118

Now those with a lower IC50 [1], led by results:

IC50 [1] [nM]	IC50 [2] [nM]	Ratio hCT/hAmylin binding [3]	Binder
0.281	42.5	151	K([γGlu-C20 diacid])CNTATCATQRLADFLRHSSPNFGAIPSSTNVGPRTY-NH2 (disulfide 2-7; N-terminus assumed; SMILES CC[C@H](C)[C@H](NC(=O)[C@H](C)NC(=O)CNC(=O)[C@H](Cc1ccccc1)NC(=O)[C@H](CC(N)=O)NC(=O)[C@@H]1CCCN1C(=O)[C@H](CO)NC(=O)[C@H](CO)NC(=O)[C@H](Cc1c[nH]cn1)NC(=O)[C@H](CCCNC(=N)N)NC(=O)[C@H](CC(C)C)NC(=O)[C@H](Cc1ccccc1)NC(=O)[C@H](CC(=O)O)NC(=O)[C@H](C)NC(=O)[C@H](CC(C)C)NC(=O)[C@H](CCCNC(=N)N)NC(=O)[C@H](CCC(N)=O)NC(=O)[C@@H](NC(=O)[C@H](C)NC(=O)[C@@H]1CSSC[C@H](NC(=O)[C@@H](N)CCCCNC(=O)CC[C@H](NC(=O)CCCCCCCCCCCCCCCCCCC(=O)O)C(=O)O)C(=O)N[C@@H](CC(N)=O)C(=O)N[C@@H]([C@@H](C)O)C(=O)N[C@@H](C)C(=O)N[C@@H]([C@@H](C)O)C(=O)N1)[C@@H](C)O)C(=O)N1CCC[C@H]1C(=O)N[C@@H](CO)C(=O)N[C@@H](CO)C(=O)N[C@H](C(=O)N[C@@H](CC(N)=O)C(=O)N[C@H](C(=O)NCC(=O)N1CCC[C@H]1C(=O)N[C@@H](CCCNC(=N)N)C(=O)N[C@H](C(=O)N[C@@H](Cc1ccc(O)cc1)C(N)=O)[C@@H](C)O)C(C)C)[C@@H](C)O)
0.232	6.62	28.5	K([γGlu-C20 diacid])CNTATCATQRLAEFLRHSSPNFGAIPSSTNVGRETY-NH2 (disulfide 2-7; N-terminus assumed; SMILES CC[C@H](C)[C@H](NC(=O)[C@H](C)NC(=O)CNC(=O)[C@H](Cc1ccccc1)NC(=O)[C@H](CC(N)=O)NC(=O)[C@@H]1CCCN1C(=O)[C@H](CO)NC(=O)[C@H](CO)NC(=O)[C@H](Cc1c[nH]cn1)NC(=O)[C@H](CCCNC(=N)N)NC(=O)[C@H](CC(C)C)NC(=O)[C@H](Cc1ccccc1)NC(=O)[C@H](CCC(=O)O)NC(=O)[C@H](C)NC(=O)[C@H](CC(C)C)NC(=O)[C@H](CCCNC(=N)N)NC(=O)[C@H](CCC(N)=O)NC(=O)[C@@H](NC(=O)[C@H](C)NC(=O)[C@@H]1CSSC[C@H](NC(=O)[C@@H](N)CCCCNC(=O)CC[C@H](NC(=O)CCCCCCCCCCCCCCCCCCC(=O)O)C(=O)O)C(=O)N[C@@H](CC(N)=O)C(=O)N[C@@H]([C@@H](C)O)C(=O)N[C@@H](C)C(=O)N[C@@H]([C@@H](C)O)C(=O)N1)[C@@H](C)O)C(=O)N1CCC[C@H]1C(=O)N[C@@H](CO)C(=O)N[C@@H](CO)C(=O)N[C@H](C(=O)N[C@@H](CC(N)=O)C(=O)N[C@H](C(=O)NCC(=O)N[C@@H](CCCNC(=N)N)C(=O)N[C@@H](CCC(=O)O)C(=O)N[C@H](C(=O)N[C@@H](Cc1ccc(O)cc1)C(N)=O)[C@@H](C)O)C(C)C)[C@@H](C)O)
